Experimental findings from paper PMC7323458 (Nature chemical biology, 2019) are described below.

What is called Kd is a measure of binding affinity in units of concentration. A high value points to a looser complex.

The target in the assay is T1, β-ketoacyl-ACP-synthase I (FabB) (E. coli, UniProt P0A953 1-406).
T1 sequence: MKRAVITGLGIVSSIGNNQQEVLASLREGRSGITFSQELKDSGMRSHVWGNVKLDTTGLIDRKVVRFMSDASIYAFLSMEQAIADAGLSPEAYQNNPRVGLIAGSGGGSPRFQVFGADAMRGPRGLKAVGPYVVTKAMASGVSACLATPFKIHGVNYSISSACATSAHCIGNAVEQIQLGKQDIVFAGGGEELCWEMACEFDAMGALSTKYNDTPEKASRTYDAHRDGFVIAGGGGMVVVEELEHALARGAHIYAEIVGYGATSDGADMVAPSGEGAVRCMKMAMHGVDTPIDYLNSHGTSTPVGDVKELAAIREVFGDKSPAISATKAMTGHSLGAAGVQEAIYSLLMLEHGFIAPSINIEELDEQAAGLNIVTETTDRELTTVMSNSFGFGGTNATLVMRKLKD
Briefly: NMR titration.

B1: wt C8-AcpP (octanoyl-AcpP) (natural protein, E. coli)
chain: MSTIEERVKKIIGEQLGVKQEEVTNNASFVEDLGADSLDTVELVMALEEEFDTEIPDEEAEKITTVQAAIDYINGHQA
modifications: amide-linked octanoyl (C8) pantetheine probe on the phosphopantetheine serine (S36); 15N, 2H labelled
The molecule B1 displayed a Kd of 37.6 µM.

B2: D38A C8-AcpP (natural protein, E. coli)
chain: MSTIEERVKKIIGEQLGVKQEEVTNNASFVEDLGADSLATVELVMALEEEFDTEIPDEEAEKITTVQAAIDYINGHQA
modifications: amide-linked octanoyl (C8) pantetheine probe on the phosphopantetheine serine (S36); 15N, 2H labelled
As for B2, the Kd is 167 µM.
